Substitutions are numbered along the chain they refer to.
T1: hBCMA-ECD-FC5VHH (human, UniProt Q02223 1-54, biotinylated in vivo ; biotinylated in vivo on the tag of the carrier part, which is not in the letters)
T1 construct: Made in HEK-293 cells, monomeric SEC fraction; The methods say about 500 RU captured on an SA chip; the results say immobilised on a CM5 chip; also called hBCMA-FC5; human BCMA-ECD; not shown: FC5 VHH carrier, any linker, and the His and biotinylation tags
T1 sequence: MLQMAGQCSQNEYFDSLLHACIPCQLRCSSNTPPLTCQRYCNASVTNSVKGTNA

T2: BCMA_B13x Gly6 (C8S)_Pro23 (human, UniProt Q02223)
T2 construct: limits and substitution as printed in the sample name
T2 yeast-displayed fusion (looked up): GQSSQNEYFDSLLHACIP

T3: BCMA_B21x Arg27_Tyr40 (human, UniProt Q02223)
T3 construct: limits given in the sample name
T3 yeast-displayed fusion (looked up): RCSSNTPPLTCQRY

T4: hBCMA fragment Gly6-Tyr40 displayed on yeast (Aga2-HA-(hBCMA)-MYC) (human, UniProt Q02223 6-40)
T4 construct: range 6-40; not shown: Aga2-HA N-terminal fusion partner of the pPNL6 yeast display vector; C-terminal MYC tag
T4 chain (looked up): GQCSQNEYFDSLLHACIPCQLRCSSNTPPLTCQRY

T5: BCMA_B15x Ile22_Ala43 (human, UniProt Q02223)
T5 construct: limits given in the sample name
T5 yeast-displayed fusion (looked up): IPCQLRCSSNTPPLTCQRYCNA

T6: BCMA_B6x Met1_Ala43 (human, UniProt Q02223)
T6 construct: limits given in the sample name
T6 yeast-displayed fusion (looked up): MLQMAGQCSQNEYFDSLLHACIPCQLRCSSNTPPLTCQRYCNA

T7: BCMA_B8x Met1_Pro23 (human, UniProt Q02223)
T7 construct: limits given in the sample name
T7 yeast-displayed fusion (looked up): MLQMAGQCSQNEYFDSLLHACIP

T8: hBCMA fragment Gly6-Pro23 displayed on yeast (Aga2-HA-(hBCMA)-MYC) (human, UniProt Q02223 6-23)
T8 construct: range 6-23; not shown: Aga2-HA N-terminal fusion partner of the pPNL6 yeast display vector; C-terminal MYC tag
T8 chain (looked up): GQCSQNEYFDSLLHACIP

T9: human BCMA on target cells (Raji, Ramos, Jeko-1, RPMI8226) (human, UniProt Q02223 1-184)
T9 construct: also called TNFRSF17; BCMA-positive target cells
T9 sequence: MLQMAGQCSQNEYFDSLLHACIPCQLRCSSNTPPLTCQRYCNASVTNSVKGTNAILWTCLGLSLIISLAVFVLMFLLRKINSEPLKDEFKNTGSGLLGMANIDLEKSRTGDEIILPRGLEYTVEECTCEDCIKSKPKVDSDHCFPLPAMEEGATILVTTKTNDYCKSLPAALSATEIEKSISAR

T10: BCMA_B9x Met1_Asp15 (human, UniProt Q02223)
T10 construct: limits given in the sample name
T10 yeast-displayed fusion (looked up): MLQMAGQCSQNEYFD

B1: hBCMA-A6 (VHH)
VHH: QVQLVESGGGLVQPGGSLRLSCVASGSIFDAYNMGWYRQAPGKQRELVAAISSAGTTFYRDSVKGRFTVSRNNAKNTMYLQMDRLRPEDTAVYDCNGAPWGDAPVKVEDWGQGTQVTVSS
modifications: single biotin on the C-terminal AviTag
notes: also called VHH-A6; not shown: C-terminal His tag and AviTag biotinylation signal from pMRO vector
B2: hBCMA-E7 (VHH)
VHH: QVQLVESGGGLVQTGDSLRLACTISGRATDHFVMAWFRRAPGKEREYVATRVWSGGSPYYLDSVKGRFAIAIDNAKNTAYLQMNNLKPEDTAVYYCAATKDIMSRSYDYWGLGTQVTVSS
modifications: single biotin on the C-terminal AviTag
notes: Llama VHH made in E. coli BL21(DE3), IMAC purified, monomeric SEC fraction used; also called VHH-E7; VHH # 1-B1; not shown: C-terminal His tag and AviTag biotinylation signal from pMRO vector
B3: hBCMA-H4 (VHH)
VHH: QVQLVESGGGLVQPGGSLRLSCAASGDSFGAYAMGWYRQAPGKQRELVAAISSAGNTFYRDSVKGRFTVSRNNAKNAMYLQMDRLKPEDTAVYQCNGAPWADEPVKVWNWGLGTQVTVSS
modifications: single biotin on the C-terminal AviTag
notes: also called VHH-H4; not shown: C-terminal His tag and AviTag biotinylation signal from pMRO vector
B4: hBCMA-VcMRo8(VF7/VF8) (VHH)
VHH: QVQLVESGGGLVQPGGSLRLSCAASGTIFSRNALAWFRQAPGKQRELVAHITIGGTTVYKDSVKGRFTISRDNAKNTVYLQMDALKPEDTAVYYCNADPEGSWNWVRRGDYWGQGTQVTVS
modifications: single biotin on the C-terminal AviTag
notes: also called V8; hBCMA-V8; not shown: C-terminal His tag and AviTag biotinylation signal from pMRO vector
B5: hBCMA-H2 (VHH)
VHH: QVKAEESGGGLVRPGDSLRLTCTISGRTSNNFVMAWFRRTPGKEREYVATRVWSGSTPYYHDSVKGRFTISIDDDKNTAYLQMNSLKPEDTAVYYCAATKDIMSRSYDYWGLGTQVTVSS
modifications: single biotin on the C-terminal AviTag
notes: also called VHH-H2; not shown: C-terminal His tag and AviTag biotinylation signal from pMRO vector
B6: hBCMA-VcMRo3 (V3) (VHH)
VHH: B2 VHH with Q1E, V5E, E6Q, A21T, S25P, T29S, D30N, Y47F, L61S, N85S
modifications: single biotin on the C-terminal AviTag
notes: also called hBCMA-V3; not shown: C-terminal His tag and AviTag biotinylation signal from pMRO vector

biological target: T1, hBCMA-ECD-FC5VHH; test: SPR, 1:1 binding model
Method: For surface Plasmon resonance, 15 selected VHHs were passed though size exclusion columns, Superdex 75 (GE Healthcare), respectively, in 10 mM HEPES, pH 7.4, containing 150 mM NaCl, 3 mM EDTA, monomeric sdAb fractions were collected and protein concentrations were determined by measuring absorbance at 280 nm (A280). Analysis were performed with Biacore T200 instrument (GE Healthcare). All measurements were carried out at 25° C. in 10 mM HEPES, pH 7.4, containing 150 mM NaCl, 3 mM EDTA and 0.005% surfactant P20 (GE Healthcare). Approximately 500 RUs of the recombinant monomeric BCMA-ECD (obtained after SEC purification of the BCMA-ECD-FC5VHH) were captured on SA sensor chip (GE Healthcare) at a flow rate of 5 uL/min. Various concentration of the monomeric VHHs (20-500 nM) were injected over BCMA-ECD surface, respectively using an SA surface as a reference at a flow rate of 40 μL/min. Surfaces were generated by washing with running buffer. Data were analysed with BIAevaluation 4.1 software.
The monomeric fraction of all 15 VHHs were used for SPR experiment where the human BCMA-ECD or mouse BCMA was immobilized onto the CM5 dextran chip and various VHH concentration (20-500 nM) were passed over the sensor chip.

Row | Binder | Kd
1 | B1 | 4 nM
2 | B2 | 0.0462 nM

Biological target: T2, BCMA_B13x Gly6 (C8S)_Pro23
Test: yeast cell ELISA, sample BCMA_B13x Gly6 (C8S)_Pro23
Method: (§1) The YSD vector (pPNL6) was from The Pacific Northwest National Laboratory, USA. […] The HRP activity was assayed with substrate TMB (tetramethyl benzidine) according to the manufacture's conditions and read at OD₄₅₀.
(§2) The assays were performed as described in the Materials and Method, and OD₄₅₀ was measured. Note that OD₄₅₀ reads equal or less than 0.100 were scored as zero for clarity.

Row | Binder | binding result
3 | B1 | no binding
4 | B3 | no binding
5 | B4 | no binding
6 | B5 | no binding

Biological target: T3, BCMA_B21x Arg27_Tyr40
Test: yeast cell ELISA, sample BCMA_B21x Arg27_Tyr40
Method: as §1, §2

Row | Binder | binding result
7 | B1 | no binding
8 | B3 | no binding
9 | B6 | no binding
10 | B2 | no binding
11 | B4 | no binding
12 | B5 | no binding

Biological target: T4, hBCMA fragment Gly6-Tyr40 displayed on …
Test: yeast cell ELISA, sample BCMA_B11x Gly6_Tyr40
Method: as §1, §2

Row | Binder | OD450
13 | B1 | 2.44
14 | B3 | 2.42
15 | B6 | 2.74
16 | B2 | 3.57
17 | B4 | 2.61
18 | B5 | 3.5

Biological target: T5, BCMA_B15x Ile22_Ala43
Test: yeast cell ELISA, sample BCMA_B15x Ile22_Ala43
Method: as §1, §2

Row | Binder | binding result
19 | B1 | no binding
20 | B3 | no binding
21 | B6 | no binding
22 | B2 | no binding
23 | B4 | no binding
24 | B5 | no binding

Biological target: T6, BCMA_B6x Met1_Ala43
Test: yeast cell ELISA, sample BCMA_B6x Met1_Ala43
Method: as §1, §2

Row | Binder | OD450
25 | B1 | 2.8
26 | B3 | 2.62
27 | B6 | 2.65
28 | B2 | 2.19
29 | B4 | 2.33
30 | B5 | 2.41

Biological target: T7, BCMA_B8x Met1_Pro23
Test: yeast cell ELISA, sample BCMA_B8x Met1_Pro23
Method: as §1, §2

Row | Binder | binding result | OD450
31 | B1 | no binding | –
32 | B3 | no binding | –
33 | B6 | – | 2.09
34 | B2 | – | 2.45
35 | B4 | no binding | –
36 | B5 | – | 2.89

biological target: T11, mBCMA-ECD-FC5VHH (mouse, UniProt O88472 1-49, biotinylated in vivo ; biotinylated in vivo on the tag of the carrier part, which is not in the letters); test: SPR (Biacore T200), VHH over mouse BCMA-ECD surface, 25 C
T11 construct: also called mouse BCMA; murine BCMA ECD; not shown: FC5 VHH carrier, any linker, and the His and biotinylation tags
T11 sequence (O88472 1-49 limits assumed): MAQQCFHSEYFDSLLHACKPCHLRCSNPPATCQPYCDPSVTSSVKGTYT

Row | Binder | Kd | koff | kon
37 | B2 | 67.5 nM | 0.0514 s⁻¹ | 762000 M⁻¹ s⁻¹

Biological target: T8, hBCMA fragment Gly6-Pro23 displayed on …
Test: yeast cell ELISA, sample BCMA_B12x Gly6_Pro23
Method: as §1, §2

Row | Binder | binding result | OD450
38 | B1 | no binding | –
39 | B3 | no binding | –
40 | B6 | – | 2.08
41 | B2 | – | 2.39
42 | B4 | no binding | –
43 | B5 | – | 2.82

biological target: T9, human BCMA on target cells (Raji, …); test: flow cytometry on RPMI8226 cells (BCMA-high); VHH detected with AlexaFluor647 anti-VHH antibodies
Method: Purified VHH were used to assess the target specificity of the sdBCMA Ab by flow cytometry. The highly BCMA expressing human myeloma cell line RPM18226, the BCMA-low human Burkitt's lymphoma cell line Raji, and the BCMA-negative Jurkat human T cell leukemia cell line were incubated with 5 fold dilution of biotin labelled sdBCMA VHH from 7.5-0.06 μg/mL. The binding of the BCMA-targeted VHH to cell surface BCMA was detected by flow cytometry using a mixture of two broad reactivity mouse anti-VHH antibodies conjugated with AlexaFluor647.

Row | Binder | EC50 (read off the curve)
44 | B6 | ~2 nM
45 | B2 | ~0.9 nM

Biological target: T10, BCMA_B9x Met1_Asp15
Test: yeast cell ELISA, sample BCMA_B9x Met1_Asp15
Method: as §1, §2

Row | Binder | binding result
46 | B1 | no binding
47 | B3 | no binding
48 | B6 | no binding
49 | B2 | no binding
50 | B4 | no binding
51 | B5 | no binding
